One assay deals with G9a (human) (UniProt Q96KQ7).
For another assay, the target named is GLP (human) (UniProt Q9H9B1).
A further assay deals with T1, SETD7 (human) (UniProt Q8WTS6).
T1 sequence: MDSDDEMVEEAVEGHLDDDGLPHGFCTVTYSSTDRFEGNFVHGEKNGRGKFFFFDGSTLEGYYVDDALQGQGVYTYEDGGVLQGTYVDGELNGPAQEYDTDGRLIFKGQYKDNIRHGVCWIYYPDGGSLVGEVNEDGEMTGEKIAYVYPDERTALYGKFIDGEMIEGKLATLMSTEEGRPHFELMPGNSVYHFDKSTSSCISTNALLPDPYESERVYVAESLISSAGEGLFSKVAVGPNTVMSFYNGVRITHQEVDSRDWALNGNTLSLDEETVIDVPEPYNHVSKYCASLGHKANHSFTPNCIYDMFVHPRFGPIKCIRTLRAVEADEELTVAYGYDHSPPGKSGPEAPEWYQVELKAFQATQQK

GLP (human), sequence (Q9H9B1 whole entry): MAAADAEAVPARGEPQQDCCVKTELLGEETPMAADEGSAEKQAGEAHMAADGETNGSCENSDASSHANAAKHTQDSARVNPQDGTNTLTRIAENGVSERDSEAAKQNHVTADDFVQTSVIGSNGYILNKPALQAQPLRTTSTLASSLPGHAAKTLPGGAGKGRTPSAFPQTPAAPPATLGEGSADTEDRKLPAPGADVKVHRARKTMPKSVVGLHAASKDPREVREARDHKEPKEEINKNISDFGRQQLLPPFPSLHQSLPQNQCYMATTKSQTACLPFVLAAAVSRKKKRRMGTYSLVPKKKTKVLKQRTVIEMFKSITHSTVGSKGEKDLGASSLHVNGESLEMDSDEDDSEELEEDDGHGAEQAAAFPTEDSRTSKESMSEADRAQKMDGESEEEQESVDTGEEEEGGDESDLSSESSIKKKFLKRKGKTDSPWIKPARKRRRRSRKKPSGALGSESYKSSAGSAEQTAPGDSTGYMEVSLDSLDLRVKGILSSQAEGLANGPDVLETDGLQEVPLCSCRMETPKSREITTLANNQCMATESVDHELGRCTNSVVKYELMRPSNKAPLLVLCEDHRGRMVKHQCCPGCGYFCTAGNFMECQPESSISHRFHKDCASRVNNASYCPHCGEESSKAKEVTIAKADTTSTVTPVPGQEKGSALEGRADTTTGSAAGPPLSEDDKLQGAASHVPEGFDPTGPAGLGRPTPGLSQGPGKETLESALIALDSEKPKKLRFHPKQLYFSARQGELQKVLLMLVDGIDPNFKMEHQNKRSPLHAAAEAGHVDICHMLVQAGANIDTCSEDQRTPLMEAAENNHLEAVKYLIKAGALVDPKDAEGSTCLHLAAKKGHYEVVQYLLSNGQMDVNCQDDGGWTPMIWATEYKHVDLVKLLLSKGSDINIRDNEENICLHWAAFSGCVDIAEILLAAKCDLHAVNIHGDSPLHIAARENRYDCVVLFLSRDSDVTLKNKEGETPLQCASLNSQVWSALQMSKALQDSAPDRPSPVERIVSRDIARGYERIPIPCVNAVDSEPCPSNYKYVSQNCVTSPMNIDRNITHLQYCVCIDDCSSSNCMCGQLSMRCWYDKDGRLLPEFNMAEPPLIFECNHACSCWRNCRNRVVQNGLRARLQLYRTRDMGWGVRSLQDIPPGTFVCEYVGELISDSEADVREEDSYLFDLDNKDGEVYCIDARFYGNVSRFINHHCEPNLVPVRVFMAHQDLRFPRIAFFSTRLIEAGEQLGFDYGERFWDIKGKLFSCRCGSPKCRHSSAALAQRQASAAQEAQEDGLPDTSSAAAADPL
G9a (human), sequence (Q96KQ7 whole entry): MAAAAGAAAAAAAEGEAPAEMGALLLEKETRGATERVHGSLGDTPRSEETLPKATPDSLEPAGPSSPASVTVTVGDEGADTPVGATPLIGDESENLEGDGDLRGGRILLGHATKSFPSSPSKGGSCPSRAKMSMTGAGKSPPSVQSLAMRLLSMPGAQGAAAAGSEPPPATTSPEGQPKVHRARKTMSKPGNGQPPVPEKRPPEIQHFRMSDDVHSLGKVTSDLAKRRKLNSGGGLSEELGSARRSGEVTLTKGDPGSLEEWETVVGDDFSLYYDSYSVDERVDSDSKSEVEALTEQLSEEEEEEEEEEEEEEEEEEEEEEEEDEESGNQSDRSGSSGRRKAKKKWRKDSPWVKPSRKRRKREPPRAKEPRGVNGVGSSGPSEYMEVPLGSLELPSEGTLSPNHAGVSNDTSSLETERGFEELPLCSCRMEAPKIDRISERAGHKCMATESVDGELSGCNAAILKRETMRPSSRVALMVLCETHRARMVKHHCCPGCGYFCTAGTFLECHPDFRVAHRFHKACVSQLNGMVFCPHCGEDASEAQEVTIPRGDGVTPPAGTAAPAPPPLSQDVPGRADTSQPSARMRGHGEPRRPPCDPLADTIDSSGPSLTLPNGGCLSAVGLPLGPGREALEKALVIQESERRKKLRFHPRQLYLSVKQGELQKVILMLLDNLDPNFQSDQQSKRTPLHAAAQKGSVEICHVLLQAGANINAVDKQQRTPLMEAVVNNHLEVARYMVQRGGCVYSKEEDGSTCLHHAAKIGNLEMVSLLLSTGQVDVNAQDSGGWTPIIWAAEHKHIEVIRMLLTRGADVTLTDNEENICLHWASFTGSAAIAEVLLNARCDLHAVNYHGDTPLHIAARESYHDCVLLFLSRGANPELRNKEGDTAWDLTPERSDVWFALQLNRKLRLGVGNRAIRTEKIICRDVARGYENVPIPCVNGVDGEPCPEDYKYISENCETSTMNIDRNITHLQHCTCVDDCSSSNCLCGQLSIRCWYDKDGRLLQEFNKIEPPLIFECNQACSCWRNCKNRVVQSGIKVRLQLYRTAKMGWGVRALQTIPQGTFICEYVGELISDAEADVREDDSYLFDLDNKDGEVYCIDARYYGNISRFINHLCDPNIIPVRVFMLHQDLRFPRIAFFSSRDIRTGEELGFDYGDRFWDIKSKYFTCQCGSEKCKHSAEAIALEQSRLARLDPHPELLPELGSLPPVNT

H3Kba9 histone peptide showed an IC50 of inhibition of G9a (100 nM) methylation of a 21-mer H3 peptide (residues 1–21, 5 µM) with SAM (20 µM), MALDI-TOF MS with G9a (human) greater than 100 µM. Moreover, in the assay with GLP (human), the IC50 of inhibition of GLP (100 nM) methylation of a 21-mer H3 peptide (residues 1–21, 5 µM) with SAM (20 µM), MALDI-TOF MS was greater than 100 µM.
As to H3F4a4 histone peptide, in the assay with SETD7 (human), the IC50 of inhibition of SETD7 (100 nM) methylation of a 21-mer H3 peptide (residues 1–21, 5 µM) with SAM (20 µM), MALDI-TOF MS was greater than 100 µM and the percent inhibition of SETD7 (100 nM) methyltransferase activity at 100 µM peptide, MALDI-TOF MS is 11%.
For the substance H3F4a9 histone peptide, the IC50 of inhibition of G9a (100 nM) methylation of a 21-mer H3 peptide (residues 1–21, 5 µM) with SAM (20 µM), MALDI-TOF MS in the assay with G9a (human) was greater than 100 µM. In addition, in the assay with GLP (human), the IC50 of inhibition of GLP (100 nM) methylation of a 21-mer H3 peptide (residues 1–21, 5 µM) with SAM (20 µM), MALDI-TOF MS is greater than 100 µM.
“H3K4 analog histone peptide with benzylamine (Kba) at position 4”: the IC50 of inhibition of SETD7 (100 nM) methylation of a 21-mer H3 peptide (residues 1–21, 5 µM) with SAM (20 µM), MALDI-TOF MS with SETD7 (human) is greater than 100 µM.
For the substance H3F3a9 histone peptide, the IC50 of inhibition of GLP (100 nM) methylation of a 21-mer H3 peptide (residues 1–21, 5 µM) with SAM (20 µM), MALDI-TOF MS with GLP (human) was 26 µM.
Turning to “H3K4 analog histone peptide with pyridylalanine (AP) at position 4”, in the assay with SETD7 (human), the IC50 of inhibition of SETD7 (100 nM) methylation of a 21-mer H3 peptide (residues 1–21, 5 µM) with SAM (20 µM), MALDI-TOF MS was greater than 100 µM.
“H3K4 analog histone peptide with meta-aminophenylalanine (F3a) at position 4” displayed an IC50 of inhibition of SETD7 (100 nM) methylation of a 21-mer H3 peptide (residues 1–21, 5 µM) with SAM (20 µM), MALDI-TOF MS with SETD7 (human) greater than 100 µM.
Take H3AP9 histone peptide: in the assay with G9a (human), the IC50 of inhibition of G9a (100 nM) methylation of a 21-mer H3 peptide (residues 1–21, 5 µM) with SAM (20 µM), MALDI-TOF MS was greater than 100 µM. This substance had an IC50 of inhibition of GLP (100 nM) methylation of a 21-mer H3 peptide (residues 1–21, 5 µM) with SAM (20 µM), MALDI-TOF MS in the assay with GLP (human) greater than 100 µM.

The record behind these values is PMC7048932, “Examining sterically demanding lysine analogs for histone lysine methyltransferase catalysis” (Scientific Reports, 2020).
